Laboratory results from patent publication US20190032056, “STEM-LOOP COMPOSITIONS AND METHODS FOR INHIBITING FACTOR D” (Vitrisa Therapeutics, Inc., published 2019).

How the values were obtained:
[1] = target: T1, complement Factor D (fD) in C1q-depleted human serum (Homo sapiens, UniProt P00746 SEQ:1-228); assay: inhibition; hemolysis, sd 4.4; settings: protein: extract; tags: endogenous fD, about 9.6 nM in 10% serum; hairpin
Procedure: (§1) In V-bottom 96-well plates the following reagents were added to a final volume of 250 μL: appropriate volume of 1× Veronal buffer with 0.1% gelatin, 100 μL aptamer, 30 μL of C1q-depleted human serum and 20 μl RBCs. This mixture was incubated for 25 minutes at room temperature, then the reaction was stopped by the addition of 5 μL of 500 mM EDTA. The plate was centrifuged for 5 minutes at 500×g at room temperature, then 100 μL of supernatant was removed and the extent of RBC lysis was determined by measuring absorbance at 405 nm.
The potency of the PEG-aptamers P01, P04, P06, P07 and P08 compared to their non-pegylated counterparts was determined in the alternative complement-dependent hemolysis assay as described in Example 2.

complement Factor D (fD) = complement Factor D (fD) (Homo sapiens, UniProt P00746 SEQ:1-228); assay: flow; bead-based direct binding, 37 C; settings: tags: His-tagged recombinant, bead-immobilized via His capture beads (flow) or anti-His Eu (TR-FRET); hairpin
complement Factor D (fD), sequence (P00746 26-253): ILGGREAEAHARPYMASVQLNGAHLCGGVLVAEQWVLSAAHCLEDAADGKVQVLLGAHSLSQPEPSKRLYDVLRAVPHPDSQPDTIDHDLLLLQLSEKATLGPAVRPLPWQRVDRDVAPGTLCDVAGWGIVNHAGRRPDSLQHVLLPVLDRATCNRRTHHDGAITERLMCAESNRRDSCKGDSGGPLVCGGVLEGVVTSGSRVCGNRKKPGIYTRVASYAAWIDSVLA

[2] = target: T1, complement Factor D (fD) in …; assay: inhibition; hemolysis; Table 17 lists about 10 nM; settings: protein: extract; tags: endogenous fD, about 9.6 nM in 10% serum; hairpin
Procedure: as §1

T1 sequence (P00746 26-253): as above

| Binder | IC50 [1] [nM] | Kd (complement Factor D (fD)) [nM] | IC50 [2] [nM] |
| --- | --- | --- | --- |
| CCGCCUUGCCAGUAUUGGCUUAGGCUGGAAGUUUGGCGG (ssRNA, 2'-F G; 2'-OMe A,C,U; 5' C6NH2; 3' idT) [Aptamer 15] | 9.4 | 8.37 | – |
| CGACUUGCCAGUAUUGGCGAUGGCUGGAAGUUUGUCG (ssRNA, 2'-F G; 2'-OMe A,C,U; 5' C6NH2; 3' idT) [Aptamer 53] | – | – | < 10 |
